# According to article PMC5785730, “Assays of D-Amino Acid Oxidase Activity” (Frontiers in Molecular Biosciences, 2018):
# B1: RgDAAO (D-amino acid oxidase from Rhodotorula gracilis) (Rhodotorula toruloides) (protein)
# chain: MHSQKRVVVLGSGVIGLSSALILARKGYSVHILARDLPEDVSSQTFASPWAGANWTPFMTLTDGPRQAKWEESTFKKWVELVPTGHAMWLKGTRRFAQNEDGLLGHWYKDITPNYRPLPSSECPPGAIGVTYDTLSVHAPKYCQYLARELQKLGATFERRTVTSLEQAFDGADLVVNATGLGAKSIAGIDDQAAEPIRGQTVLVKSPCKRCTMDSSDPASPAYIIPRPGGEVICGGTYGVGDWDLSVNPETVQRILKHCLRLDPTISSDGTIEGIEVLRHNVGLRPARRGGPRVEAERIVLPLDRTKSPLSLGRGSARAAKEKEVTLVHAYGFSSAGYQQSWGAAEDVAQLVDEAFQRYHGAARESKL
# notes: recombinant wild-type RgDAAO
# What was measured:
# Conditions in all cases: FAD
# purified protein [1] = substrate: C[C@@H](N)C(=O)O; test: purified protein
# purified protein [2] = substrate: N[C@H](CCC(=O)O)C(=O)O; test: purified protein
# [3] = substrate: NCCCC[C@@H](N)C(=O)O; test: steady-state kinetics, oxygen consumption assay (Km); type: biochemical, Rhodotorula toruloides
protein,measurement,setting,value
B1,Km,purified protein [1],1.3 ± 0.2 mM
same,Vmax,purified protein [1],100 µmol/min/mg
same,Km,purified protein [2],76.4 ± 6.4 mM
same,Vmax,purified protein [2],1.7 µmol/min/mg
same,Km,[3],14.6 ± 1.4 mM
same,Vmax,[3],16.4 µmol/min/mg
